assay: soluble on expression in E. coli; label from the status in PepcDB or PDB records

| Sequence | soluble on expression in E. coli |
| --- | --- |
| HRPEGLEQLEAQTNFTKRELQVLYRGFKNECPSGVVNEETFKQIYAQFFPHGDASTYAHYLFNAFDTTQTGSVKFEDFVTALSILLRGTVHEKLRWTFNLYDINKDGYINKEEMMDIVKAIYDMMGKYTYPVLKEDTPRQHVDVFFQKMDKNKDGIVTLDEFLESCQEDDNIMRSLQLFQNVM | soluble |
| HSEEAAYYAVEIGRMFDLGDEKLEKLYWAGLLHDIGKIYVPQVVLNKTSKLDEREFELIKIHPVRGYELVKEIEGFEDVAIWIRHHHERWDGKGYPDGLKGEEIPFEARVLCVADSYQAM | soluble |
| HSSGLVPRGSHMSQERILDGEEDEINHKIFDLKRTLKDNLPLDRDFIDRLKRYFKDPSDQVLALRELLNEKDLTAEQVELLTKIINEIISGSEKSVNAGINSAIQAKLFGNKMKLEPQLLRACYRGFIMGNISTTDQYIEWLGNFGFNHRHTIVNFVEQSLIVDMDSEKPSCNAYEFGFVLSKLIAIKMIRTSDVIFMKKLESSSLLKDGSLSAEQLLLTLLYIFQYPSESEQILTSVIEVSRASHEDSVVYQTYLSSVNESPHDIFKSESEREIAINILRELVTSAYKKELSR | soluble |
| HVEQSNKDELLLEEITSWLEKNTDGKIVVFCGDKTVADNVYKFIEQNLPSVERHIDGKLPGFNISPQYNVLICDQSGEDGLNLQGKCRLAIHYSLPRTVMRIEQRIGRLNRYSASSIGVLPV | not soluble |
| IDENSFWIEGYFKETDLAGIAPNDRATVTLLMHDDVALEGKIKSIGFGIAKKDGTTGNDLLPTVNPNFQWIRLAQRIPVKVTLNEMPKDLQLRVGMTASIKIIKH | not soluble |
| IDFHRGTQGEGRVEVELSQPGAVINVHSHGSRLLVEFMKAYLPPNLERRLNVLDFATPVQSVETVARDGNVQMIIEPKGRWEHTSWQTGTSFVVEIRPMAEAED | not soluble |
| IDLSNALPGSRRGFLKGAAVVGLTIGFQWSGARRALAAALPDAGFAPNAFLRIAPDDSVTVIAKHVEMGQGAYTGIATIVAEELDADWSKVRVESAPADAKRYANLAFGTMQGTGGSSAMANSWMQLREAGAKARAMLVEAAARQWQVPAAELRTRDGFVEHPTSQRKASYGSLAAAAAELPVPEKVQLKDPKDFRLIGHQAPRVDVPGKTDGSAQFTLDVSLPGMLVALLQRPPLFGATVKSFDATATRAIPGVVEVVQVPHGVAVVAKGFWAAKQGRDALKVEWDESKAEKRGSEALMAEYRKLAEQPGKPARRDGDAAKAVAGATRRIAASYEFPFLAHAPMEPLDAVVRLTADSCEIWAGDQFQTVDQGNAARTAGLKPEQVKINTLYAGGSFGRRANAWSDYIVEAVSIAKALGANGVPVKLQWTREDDIHGGFYRPMYYHRLEAGLDADGKLVGWQHRIVGQSILEGTPFAAVMVKDGIDATSVEGAANLPYAVPNVSVELSTTQVGVPVLWWRVVGSSHTVYAVEAFIDEAAQAAGKDPYLFRRDLLAEQPRLRGVLELAAEKAGWDPSRPLPAGRGRGIAVTEAFKTFVAQVVEVSVDKDGKLKVERVVCAVDCGIPINPDVIAAQMEGGIGFGLGAILHSAITLKDGKVEQNNFDGYQVLRIAEMPKVEVHIVPSGEAPTGVGEPGVAPIGPALANAIFAATGQRLYNLPFPTSFA | not soluble |
| IGFQRGAQGEGLVVIDLQGTNTPVDVQQQGSKVVVRFPGIKIPTHLARRLNTTDFATPVASIDSYNDGSNGVISIQSTGSYEYMAYQAENKLTISLKRPQDNV | not soluble |
| IGKLKLSARGTFTFTRNKILEYDELPQKYGYQAVTGTRVSENTLYIADRLYTEDDFIVSTNANGLKTYKLRSELPRPTLGGLIGPGDIKYVDVNGDGVIDSYDQVRGVGNPSTPEIIYGFGLNAEYKGFYASIFFQGAGNTSVLLGGATSEGWYPFSWGVDQSNYRTFALDRWTENNPSQDVIIPRLHKNNANNANNRVASTWWLRNGSFLRLKNIEFGYQLPKKFMDKIGFEAARIYIMGYNLAVWDDIKYFDPEAGNANAGLNYPLPRTFTLGLDFTF | not soluble |
| IKDFSYGARFNLSDQKDKLVDYGVEYNGFVAGVNQKVQGYSLGSIFGYRTDGYFTSEEEVKNSAAFNKAITGVGDIKYIDKDGDGKISAPNDLEYLGTTTPRYTFGLNLTAAWKGFDLGVLLQGVGKRNFYLSSEVMNPYYATWNNFSYKMHNDYWTPENPNAAFPRYYAGANHNYQISDHWLQNAAYVRLKNLQLGYTISPKLTKSWGIQRLRVYFSGDNLCEYSKLNDNFDPELSDINGYVYPIMRNFSFGINVTL | not soluble |
| IKDWTWKMGGNISYNKNKVVTLPDNGQPKNRIGGQQIYTGRKVLDEAGNQVDEVIFVGGKQEGQEPGILVGYKAEGLYKDWKDIPGDLVVKTGNYQGKYQYGPKAYAALSDAEKAKALQIEPGDVKWKDINNDGTIDAFDQIVIGNTTPHWFGGFNTTLTWKGLTLYGRFDFALDYWIYDNTTPWFLGCMQGGYNTTTDVFNTWSEENPNAKYPRYVWADQLGTANYYRTSTMFAYKGNYLAIREISLSYSLPQNIARKFYCQKLDVSVTGQNLGYITSANVATPEVSSAGSGYALPRTLLFGINVTF | not soluble |
| INTVGYLEQKMFAAMVADNQMAMVMLNPKNLKASNGEEELAGQTWYWKVAPVATTQPLLKAFDVSVAAEKQASPIITVRSYVAK | soluble |
| IPEYVDWRQKGAVTPVKNQGSCGSCWAFSAVVTIEGIIKIRTGNLNQYSEQELLDCDRRSYGCNGGYPWSALQLVAQYGIHYRNTYPYEGVQRYCRSREKGPYAAKTDGVRQVQPYNQGALLYSIANQPVSVVLQAAGKDFQLYRGGIFVGPCGNKVDHAVAAVGYGPNYILIKNSWGTGWGENGYIRIKRGTGNSYGVCGLYTSSFYPVKN | soluble |
| IQVFVKNPDGGSYAYAINPNSFILGLKQQIEDQQGLPKKQQQLEFQGQVLQDWLGLGIYGIQDSDTLILSKKKG | soluble |
| ISFVIAAPEAIAAAATDLASIGSTIGAANAAAAANTTAVLAAGADQVSVAIAAAFGAHGQAYQALSAQAATFHIQFVQALTAGAGSYAAAEAASAASITSPLLDAINAPFLAALGRPLIGNGADGAPGTGAAGGAGGLLFGNGGAGGSGAPGGAGGLLFGNGGAGGPGASGGALG | not soluble |
| ITDRKVLERELATRNAFLTAVLQTSVSAIVALNAEGGIVYANDEARRLLVLQPHRGGLRMEAVLETLDGRPLPEADMPSALVRATGAPLHDLRYAIRRPDGQFGILSINAAPLPQAADDARIVISVTDIT | not soluble |
| KATRDSSTLNVDTYVNWIKRVFRPQRLRLLERKELVVEEADYEYALGEIANVRSDAQQMLGSRIMSRPLPFIWLFGGDLSSQKELSVRVDTMVEYLHNTTDNLIFAKLMDVPPLPTTLSHWLPKDKRS | not soluble |
| KCLVLDLDGTLWGGVVGEDGIEGIKLGPTGSGKPFYEFQKYIKSLFKKGVILAVNSKNNYDDAMEVIRKHPYMVLREEDFADFEINWQDKASNMRAIAKKLNIGIDSMVFMDDD | not soluble |
| KDFLAMFSPKCGGCNRPVLENYLSAMDTVWHPECFVCGDCFTSFSTGSFFELDGRPFCELHYHHRRG | soluble |
| KFRTMRQNLQEASDVLDDQIESFTKIIQNHYKLSPNDFADPTIQSQSEIYAVGRIVPDSPTYDKFLNPESLSLETSRMGGVGRRVRLDLSQVNELSFFLGQIVAFKGKNANGDYFTVNSILPLPYPNSPVSTSQELQEFQANLEGSSLKVIVTCGPYFANDNFSLELLQEFIDSINNEVKPHVLIMFGPFIDITHPLIASGKLPNFPQFKTQPKTLDELFLKLFTPILKTISPHIQTVLIPSTKDAISNHAAYPQASLIRKALQLPKRNFKCMANPSSFQINEIYFGCSNVDTFKDLKEVIKGGTTSSRYRLDRVSEHILQQRRYYPIFPGSIRTRIKPKDVSTKKETNDMESKEEKVYEHISGADLDVSYLGLTEFVGGFSPDIMIIPSELQHFARVVQNVVVINPGRFIRATGNRGSYAQITVQCPDLEDGKLTLVEGEEPVYLHNVWKRARVDLIAS | soluble |
